Measured values reported in patent US20050004351A1.

Legend:
Experiment in all cases: competitive ELISA
[1] = target: affinity purified β2GPI-dependent antiphospholipid antibody from patient 6644
[2] = target: affinity purified β2GPI-dependent antiphospholipid antibody from patient 6701
[3] = target: affinity purified β2GPI-dependent antiphospholipid antibody from patient 7008
[4] = target: affinity purified β2GPI-dependent antiphospholipid antibody from patient 6641
[5] = target: affinity purified β2GPI-dependent antiphospholipid antibody from patient 6652
[6] = target: affinity purified β2GPI-dependent antiphospholipid antibody from patient 6626
[7] = target: affinity purified β2GPI-dependent antiphospholipid antibody from patient 6501
[8] = target: affinity purified β2GPI-dependent antiphospholipid antibody from patient 6203
[9] = target: affinity purified β2GPI-dependent antiphospholipid antibody from patient 6509
[10] = target: affinity purified β2GPI-dependent antiphospholipid antibody from patient 7015
[11] = target: affinity purified β2GPI-dependent antiphospholipid antibody from patient 7101
[12] = target: affinity purified β2GPI-dependent antiphospholipid antibody from patient 7104
[13] = target: affinity purified β2GPI-dependent antiphospholipid antibody from patient 6632

B1: recombinant human β2GPI domain 5, GlyHis6 (protein)
chain: GRASCKLPVKKATVVYQGERVKIQEKFKNGMLHGDKVSFFCKNKEKKCSYTEDAQCIDGTIEVPKCFKEHSSLAFWKTDASDVKPCGHHHHHH
Max inhibition [1]: 10% | Max inhibition [2]: 10% | Max inhibition [3]: 20% | Max inhibition [4]: 10% | Max inhibition [5]: 15% | Max inhibition [6]: 10% | Max inhibition [7]: 10% | Max inhibition [8]: 5% | Max inhibition [9]: 10% | Max inhibition [10]: 10% | Max inhibition [11]: 5% | Max inhibition [12]: 0% | Max inhibition [13]: 10%
